Laboratory results: the domain aggregation screens of Martell et al. (2025)

Test: soluble fraction after stress (log2 fold change); higher = more stays soluble; pooled small domains, quantitative proteomics
Conditions: stress: 75 degC
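Note: 20 min heating vs room temperature control held 20 min.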

Sequence | soluble fraction (log2)
HMKKPLEYIDVDKREDFPPVPNGMRYIHFYGGTKNYRAYIAPEDISRADFMEQYPEYVPEHN | 0.237
HMKKSTLLLFFLKELLEGKKISLKSFALENDINIRTAQRYIEDIEEAFPDNLLKENDFYSFV | -2.89
HMKKTETVRFTTNVTHGTKIKETDVEVVKISNSALPDKVVKNKTEVIGKYATADLFKGDFATENKVTD | 0.142
HMKKTIIVHVVGEVNTPGIVELNEGARIIDAINGAGGKTEEADMSKINLAYVIEDGSQIYVPSIYE | -0.387
HMKKTITISNYINVRDFATMSELPVNSILSVLMKNGIFVSLNEKIDFDTAWLVGSELGLEVKQKQG | -1.58
HMKKYEFIEDLPGVGPATAQKLRDLGYHTVESLAMATARELEPIGVGEKKAFSMIEAARSAIGFS | 0.284
HMKKYISEEQAKQAALETAGGGSVVKIKFTTDDGIKVYEIDIINGNYEYEITVHAETGKILDVDKERIH | -1.6
HMKLELSNDFYNKIRLARKENGLTQEDLAEKLNMKVGVIQKIENGVRQTDSNLMKISKFLGVEIYVE | -1.98
HMKLPNGYGGIAKLSGKRRNPWRVRVTKGWSVDEQTGKAKQLFSTLGYYPTRKDALAALSAYNQNP | -1.64
HMKLRLGVNIDPVATVRNARGSAYPDPVRAAIIAQEAGADGITAHLREDRRHIVDQDITSIIKAIDIPLNF | -0.129
HMKLRSIQEQVQYLEKVDNQKAMQIILNMNDKASAVQILRNMKKEKAAAILAQMDPLQAAQILEDLA | -0.34
HMKLSDDIIVDTIKEIIEENKNMIEQRKMGAMGPLMGKAMAKFKGKADGQTVSNVIKDEILNIIN | -0.0773
HMKLSIEDLAAELIRKIEAGDIGNEQGKMPSERELLAIYPVSRYTLRQALNKLSKMGWIYQMQGRGSYIRF | -1.48
HMKLSNELLNAIMLIKKGIRNPTSLAQRLNTDTQYAKNLLEHLKMTGLINEHSRLTSRGLDIFHQK | 0.356
HMKLTEEEFNAKRKAYLDRLETLNDEAVIKATFMEAASGLGLQKGSAEFGDLRKYFVDRIVDIK | 1.01
HMKLTEGETIFLNESDTADWKKIPGIGSVYASRIVKYRNLLGGFVSVNQLREVYGIDDELFAKIYPYI | 0.085
HMKLTESQLHKFTNDAVLAHIRNLIEFKGAFTEDDIEPIIRDRAAVYGIDLEDEDYKKVKTDVEYHFK | -0.0402
HMKLVELVGSPKQIAWAEDIRKNMISYLSALVRKYEAENRPARAEKRAKDMEILSNIKEASWFIENRS | -0.733
HMKMAKTIKEIAEEIGVSKQAVFKKIKQVPLSTEIEKFISTVDGKKLVSVDGENLIKQAFQR | 0.355
HMKMLKAPIPGTIIEVKVNPGQTVNDGDVAVVLEAMKMESDIHFNSSGKVKKIHVNKGDSVQEGDDLIELE | 0.0235
HMKMNRELNQRQIKMLDYLSVNPKTTRKQYTKMMGISFMTSYRDIQELIDKAYIISKGQGRGTYYILAN | -0.709
HMKMQIGEIIRKYRKSNHMTQEEMAERLGVSAPAVNKWENGNSMPDIMLLAPITRLLGISLDELLSFE | -2.26
HMKMSVEEVNLSPRTTNALINNDIKTMKDLVALTDTELRDLKGFGSKAYEEVKEKLSELGLSTQ | 0.503
HMKMSVKNEIISLLEKNRDTSISGQVIADSLNVTRAAVWKAIKVLKEEGYNIDGTPNKGYILLGNN | -1.22
HMKMTFGENLHKLRKIYRLSQEDVASAINLKRSDIAAVEKGDRVLNDEELDKLADFIGIDIVDLL | -0.479
HMKMVSTPTGTRISLTQVKEFISNASFDDMKEILLEVLAWFKAHNLGNPFNYNRAFEFIVAH | -0.256

Sequence | soluble fraction (log2)
HMKNELNSKLIISIKEALPPQIKVATYLMDLLSLGREAVYRRIRGDVSFDLEELSIISKALNISIDDVL | -3.9
HMKNESLMLPRDIDYSRVHGLSNEAIQKLQDALPQSLGQASRIEGITPATLSLLLLYLKKNNKRI | -0.00281
HMKNHSTFKSVLSNIEFPINERISGHAIQNPILGLIKADHPNFSSDQYIAISELNFYREKYISNYLLTEI | -3.67
HMKNKIYGTIVSSTSGEETVYKVFQVDSSKDITYLFRPDMIRLAHENNQALEFNEETGRGKRIEMSDLPK | -0.106
HMKNLHLVPNVVGMSAKEAKNTLKSFNIKYKPIYGSSNKYDENYIFNQNPRKGKTIKEQEVVTIYISRGAD | -1.42
HMKNNNIIFSEFLKEVENGRVVEVRIQGNNIQGIMSNGKEFTTYSPNYPNLIEKLTETGVSISAAPL | 0.434
HMKNPLIIGMTKDKIIELIGMPDNIKFLDSSLSKSEVWNYDKFGKKLYIKDEKLYQIENIEE | 0.0985
HMKNSAAKETILAFLKKNGGELFTQMQIIEKFQKMIPAPVLRITLEELLNKGQVEITSKGKYYLSVKGS | -2.08
HMKNSKIVIQKRHNHILELLKQNRTMDVTVLAERLGVTGATIRRDLKKLEQEGTIVRSFGKVSFVG | -2.18
HMKNTVGEYRKLKSTTILYSNSDLTGTKYTYLPNTTVKILKNISSTVDYVYIKATNRYAYINIYAYT | -2.69
HMKNVENIILEQLKKNIYDDLNNASFEEIILIDAEKSIYKGTIKANYIEYNFKINLSTGEILKWKLK | -1.95
HMKNVSVKMILSPESLGEIQVDLVFSKGKDLEIMLRPETAEVAKLIQSNSASLREQLSLEHKGPLSLNVS | -0.32
HMKNYALHEPMMDRIAKVNALYDAGHTIKYMTARGAVSMVDYYDLTKSQLDSWGAKYHELSVGK | 0.12
HMKNYYEVLGVPRDAAAPDIKRAFRKLAKQFHPDHNPGDAKAEERFKLVSQAYDVLGDEEKRKLYDQFGE | 0.0891
HMKNYYSILGVTPDSSEAEIKSAYRRLARKFHPDVNPDGASRFKDISEAYETLSDAKKRFQYDTINGF | -0.0709
HMKPATSITFIPSERPDLVEQLSKITFDKKDSLYENYINLNWLTFEAISVYMREGDIIGFST | -0.148
HMKPDAAKREQLIDIALRLFSQQGIARTSLNAIAREAGVTPAMLHYYFNSREQLLDVMIEERFL | -3
HMKPDIETQLKKYRYKVSVSKKIKPYMVFSDKTLSELLTKSPTNLKELEDINGFGPVKVQEYGAAILEILK | -1.19
HMKPDSEFTSQDLWQNDLAGTGSAAYRRDKMGALLGIGYGNAKRFLERLNSYGVTRSEFDEALAQLGE | -0.188
HMKPEDIALLEEIRDLLKEKKSVIVNLEYVNKDVARRIVDFISGGVFALNGHIQKVSNSIFLVAPMN | -0.00621
HMKPMNNNDILRRLRYTFDLSDDKMMETFALGGYEANRSEISDWLKKDDHPEQKSLYDKSLSHFLNGFIV | -0.178
HMKPPVQVIGKAVVTASSLNVRTGPGTGHGIITSLPRNTEVELLEQQGEWYKIRRGSTVGYVHGGYLKIN | -0.311
HMKPRISMITLGVKDLNKSIEFYGGGLGFPRKKTEPEIAIFKLNGSWLSLYNRGLLAEDANVS | -0.184
HMKPSKYTLAIDSIPVHVTRKQMKSIRLRVTPLGEVRVSAPYGVKDSEIVEMVRSRKLWIESQQRA | -2.34
HMKPSTETLYATARINVRAAADTSAEKLGSIEMGEAVVRTGTDGDWSIIEYNGSTGYVKSEYLTANAGDAT | 0.232
HMKPSVEIKVNGGTGAGVVKKGGSITVTANEPAEGKVFTGWQDESGKIVSTQKEYTFTVAEGTTLTAVYED | ≥ 1.04

Sequence | soluble fraction (log2)
HMKPTGWVRGDMGVVDKGQLSITQGTVNVRSGPGLSYEILDQVRRGDRFPVIKSQSGWHNISM | 0.249
HMKPTSLLGIERYLGSGLIRGVGPSTAKQIVEHFGMETMEVLTEHPERLQEVHGMGRKRWRQIAESFQEQQ | -0.869
HMKPVTVINFVGMTEEKAMTEAEKLGLVVGASSSEYSDEPAGTVIRQSISVSTEAKTGDNIYFTVSKGPE | 0.677
HMKQETLNEIGTKIRKLRESKNLSIQEFADKLEMEYNNVIRIEKGRTNFTIGTLVKIANSLEVNLKDI | -2.41
HMKQFVVQYYGIDGEVINSVYKNGMSDLTSYEPEKIDGKNFKGWSLSEDSKKVIDENYRINSDVNLYAVYT | 0.758
HMKQHPTIDLQIGQKLHYKEDVFEVTRFAKDKNGQDMVILKDPSIGSGIEIPWYRSKLEEIIESGQYKIT | 0.361
HMKQIEEIIARYTNENTPLMMILSDVQREYGYIPLDVQELISEKTGIPVAEIYGVVTFYSFFSL | -0.676
HMKQISQNIHRLRKEKGMSQEQLAQALHVTRQTVSAWERGIAQPSLDVLGQIAQLLGVEPERLLYGE | 0.288
HMKQLQIPYSFAKRHGVLLRYEGDQAFIVRRDNTSMLALQEARRLLGHPAHYLLYSEQEFNQLLSASFA | -2.69
HMKQLVVVPRVVSLSEGKAREDVGDRGLVVDRVEMDTLRTPYENTVTRQEPAADSRVPVGTRVTLWISPGV | 0.567
HMKQNSDDGEIRKIIIEILDNNLDNVNKYKSGRTNVLDFFVGQVMKQTRGQANPELTRSILTEELSN | -0.169
HMKQQTRAELLDEFAKAHAERGLYFNRDYEQGEIQALQPDKAREYLQSALEARTERQQASEQDR | 0.262
HMKQTDQELAEMLRFRAAQRGLLMSDEVVNYVMTRVERSAKSLIMLLDRIDRAALAQARPVTIPLINEL | -0.523
HMKQVEVPRLVGLTLREAQAVLGQVGLRIGLISRAALLASPREQIVEQIPVAGERNIATPYVNLLVNVP | -0.895
HMKRDEYIAQLKKYLKRLPKKEYDSAIEYFTEYFDEAGPERELEVIQELGQPKEAAKEMLLQLLNE | -0.105
HMKRDNETRRRIVAAAEELFRAKGLDGVNMRELAEMAGVNKGLLHYYFKTKQALFREILVGQMAL | -1.31
HMKRDRLYGITIYLLNHGRTSAKTLAEYFEVSVRTIQRDMDALSMAKIPIIAYPGSDGGYEIQEGYRL | -3.03
HMKRDYELPAFIETYLKKNHVAIDTKSAAMIAEHIGADLSRLISELDKVMISLPDDDRRVTPDVVEREI | -0.0791
HMKREETLKALATKNANYVARSGRRYSFEPMNPYERRIIHTAVQEIEGVTSRSIGSGMDRRVLIEPEGGV | -0.322
HMKRELFVEPGMRLEHTPSKTSGPVVSFIEGVIVVIKDQLGSEHRFDPVPGFFRHEGDLVALRSPLL | -0.996
HMKRIDTILETFAKVHKHIPSKLILLGDGPELLDMRKIARSLHIEDDVLFLGKQDQVSKFYQMADLVLLL | -0.314
HMKRIHLSDEEKTDLESLHYSSNDGKQRDRIKAVLLRSEGWTVPMISQALRIHETTVTRYLNDYREGKLKN | -0.724
HMKRITKKELKQAIVDVFADKPGQSFNYKQLATIIGIKDDPTRRMITDILYELVQEERIVELYRGKFKMEM | -2.58
HMKRLPFSFAKRFGVVVEDGEPPIVHHRDGASAETLLEVRRRLGQVFTLQRHDAEAFERLLTQAYQR | -1.15
HMKRPEPESPEAERRSQRAADWLVRRDRGLTAAEQDEFLQWLAIDPRHGEWFALHRSVVGEFSA | -0.081
